Series [1] concerns the target FVII_XHC: FVII with FX activation peptide inserted in the end of FVII heavy chain. Kind of series: cell-based or functional assay.
In series [2] the test system is T1, Factor VII (wild-type, single-chain zymogen).
T1 sequence: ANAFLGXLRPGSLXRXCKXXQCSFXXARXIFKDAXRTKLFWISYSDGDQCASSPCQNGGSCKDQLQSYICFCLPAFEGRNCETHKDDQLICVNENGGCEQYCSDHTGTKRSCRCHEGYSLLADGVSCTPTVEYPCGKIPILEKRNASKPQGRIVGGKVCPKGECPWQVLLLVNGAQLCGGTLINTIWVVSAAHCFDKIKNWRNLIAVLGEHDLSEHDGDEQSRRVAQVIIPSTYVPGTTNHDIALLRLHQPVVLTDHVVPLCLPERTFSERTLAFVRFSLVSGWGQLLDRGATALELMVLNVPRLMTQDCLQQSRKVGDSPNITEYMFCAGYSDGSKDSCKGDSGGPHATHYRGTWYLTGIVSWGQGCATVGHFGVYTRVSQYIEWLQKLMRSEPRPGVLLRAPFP

“Factor IXa (from UniProt P00740 47-461) (enzyme)”: the time to complete activation, reducing SDS-PAGE, 80 nM FIXa in series [1] came out at 4 h.

On to Factor XIa, for which, in series [2], the “activation of FVII (cleavage to two chains) on reducing SDS-PAGE; 75 nM FXIa for 2.5 h” value is on record as “completely activated under all described conditions”.

Factor Xa: the “activation of FVII (cleavage to two chains) on reducing SDS-PAGE; 100 nM FXa for 2 h” value in series [2] was “completely activated under all described conditions”.

Turning to Factor IXa, in series [2], the “activation of FVII (cleavage to two chains) on reducing SDS-PAGE; 250 nM FIXa for 20 h” value is on record as “completely activated under all described conditions”.

These data come from US20120321607A1.
